Data taken from the supplement of paper PMC10201428.
± gives the standard deviation of the averaged measurements.

B1: library; a variant is named by its letters at N, in order (parent)
chain: AATGTTGTTGATGCAACCATAAAGTGATATTTAATAATTATTTATAATCAGCAACTTAACCACAAAACAACCATATATTGATATNTCACAAAACAACCATAANTTGATATTTTTGTGAATCGAGTATTTCAGCAAAACTACTGCAGTAAGAA

Experiments:
[1] = variants of: B1; assay: relative integration efficiency (T-LR orientation) vs wild-type transposon end (log2 (normalized fold change)); transposon end mutated: left end; higher = more efficient transposition; conditions: with VchCAST RNA-guided transposition machinery (E. coli BL21(DE3) host, lacZ target)
Method in brief: (§1)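 Co-transformation of E. coli BL21(DE3) combined a pUC57 mini-transposon donor, holding barcoded pools of 1549 left-end or 1849 right-end variants, with a T7-driven plasmid encoding a CRISPR array, tniQ-cas8-cas7-cas6 and tnsA-tnsB-tnsC. After plating with 0.1 mM IPTG at 37°C for 18 h, input plasmids and genomic integration junctions were PCR-amplified and Illumina-sequenced across two biological output replicates, with four reference barcodes. Relative integration efficiency is the normalised, log-transformed output/input barcode fold change.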

[2] = variants of: B1; assay: relative integration efficiency (T-RL orientation) vs wild-type transposon end (log2 (normalized fold change)); transposon end mutated: left end; higher = more efficient transposition; conditions: with VchCAST RNA-guided transposition machinery (E. coli BL21(DE3) host, lacZ target)
Method in brief: as §1

Row | Variant | relative integration efficiency (log2) [1] | relative integration efficiency (log2) [2]
1 | CG A88T C89G | 0.362 ± 0.31 | 0.178 ± 0.048
2 | CG A34C A36G T38C T42C A62G A65G A66C | -0.874 ± 0.72 | -0.721 ± 0.33
3 | CG C49G A50T G51C C52G | -1.24 ± 0.76 | -1.58 ± 0.9
4 | CG T86A C87G A88T C89G | 0.1 ± 0.54 | -0.174 ± 0.12
5 | CC A23T G24C A77T T78A T104A | -0.642 ± 0.69 | -0.611 ± 0.28
6 | CG C55A T56G | -0.293 ± 0.89 | 0.0947 ± 0.38
7 | CG A1T A2T | 0.429 ± 0.098 | 0.223 ± 0.059
8 | CG A47C T48G | -0.613 ± 0.46 | -0.656 ± 0.35
9 | CG T48A C49G A50T G51C C52G A53T A54T C55G T56A T57A A58T | -2.96 ± 2.6 | -3.43 ± 1.1
10 | CG C71G C72G | -1.67 ± 1.9 | -1.32 ± 0.57
11 | CG T114G T120A | 0.16 ± 0.11 | -0.2 ± 0.041
12 | CG A66C C68A A69C A70C C71A C72T A77T T78G T79A G80T A83C T86A C87A | -2.717 ± 0.015 | -1.87 ± 0.77
13 | CG A92C A93C | -0.222 ± 0.86 | -0.331 ± 0.24
14 | TA G24A T30A T76A T78A T84A C87A A96C T112G T113C | 0.461 ± 0.4 | 0.172 ± 0.12
15 | CG C89A A90C | 0.0275 ± 0.49 | -0.181 ± 0.15
16 | TA A16C G24T T32G A33C T76A T78G C87A A102T T111C T113C | -0.986 ± 0.79 | -0.362 ± 0.18
17 | CG C14A A15C A16C C17A | -1.81 ± 1 | -1.38 ± 0.6
18 | CG A77T T78A T79A G80C | -3.86 ± 2.7 | -2.18 ± 0.89
19 | CG A118C A119C | 0.178 ± 0.4 | -0.00591 ± 0.078
20 | CG G80C A81T | -2.2 ± 1.5 | -2.1 ± 0.85

Row | Variant | relative integration efficiency (log2) [1] | relative integration efficiency (log2) [2]
21 | TA A16C G24T T32G A33C T76A A77G C87T T104A T110A T113A | -0.782 ± 0.82 | -1.38 ± 0.49
22 | CG A64C A65C A66C A67C | -0.691 ± 0.34 | -0.323 ± 0.18
23 | CG T25A T79A T105A | -3.4 ± 0.079 | -1.88 ± 0.86
24 | CG G4A | -0.235 ± 0.11 | -0.0961 ± 0.035
25 | CG A81C | -0.551 ± 0.4 | -0.479 ± 0.28
26 | CG C52T | 0.154 ± 0.19 | 0.201 ± 0.14
27 | GG T84A T86A C87G | 0.0518 ± 0.56 | -0.036 ± 0.31
28 | CG C72T | -0.0498 ± 0.25 | -0.0527 ± 0.2
29 | CG T105G G106T A107C T108G | -2.48 ± 1.8 | -2 ± 0.7
30 | TA A23G G24T A33T A70C T76A T86G A96C T110A T113A | 0.0515 ± 0.56 | 0.0613 ± 0.44
31 | CG C68G A69T | -0.877 ± 0.31 | -1.02 ± 0.41
32 | TA A23G G24T A33T A70C T76A T84A C87A A96C T110A T113A | 0.218 ± 0.46 | 0.00966 ± 0.38
33 | CG G115C T116A G117C A118T | 0.334 ± 0.11 | -0.12 ± 0.028
34 | TA G24A T30A T76A T78G C87A T104G T113A | -0.302 ± 0.11 | -0.161 ± 0.15
35 | CG T35G A36C | -0.467 ± 0.11 | -0.318 ± 0.071
36 | CA G24A T30A A102T T111C T113C | 0.116 ± 0.42 | -0.31 ± 0.36
37 | CG A118C | 0.243 ± 0.42 | -0.0886 ± 0.026
38 | TA A22T G24T T31C A33C T76A T78G C87A A102T T111C T113C | -0.662 ± 0.16 | -0.645 ± 0.14
39 | CG A53T | 0.318 ± 0.24 | 0.0743 ± 0.088
40 | CG A62T C63G A64T A65T | 0.238 ± 0.12 | 0.339 ± 0.046

Row | Variant | relative integration efficiency (log2) [1] | relative integration efficiency (log2) [2]
41 | TG A22T G24T T31C A33C T76A T78A T84A C87A | -0.618 ± 0.17 | -0.5 ± 0.36
42 | TA A23G G24T A33T A70C T76A T84A C87A T104G T113A | -0.16 ± 0.29 | -0.158 ± 0.26
43 | TA A23G G24T A33T T76A T78G C87A A96C T110A T113A | 0.938 ± 0.63 | 0.884 ± 0.19
44 | TG A16C G24T T30A T76A A77G C87T | -0.0311 ± 0.37 | -0.534 ± 0.47
45 | CG T31G T32G A33C A34C | -0.805 ± 0.2 | -0.592 ± 0.32
46 | CG C14G A15T | -1.58 ± 0.72 | -0.642 ± 0.37
47 | CG T31A | 0.0948 ± 0.84 | -0.128 ± 0.14
48 | CG T38A T39A A40T T41A | -0.9 ± 1.3 | 0.168 ± 0.1
49 | CG C72A A73C | -2.02 ± 0.55 | -2.16 ± 0.91
50 | CG C14G A15T A16T C17G | -1.31 ± 0.38 | -1.26 ± 0.49
51 | CG A46T A47T | 0.446 ± 0.37 | 0.452 ± 0.058
52 | CG A16T | -0.444 ± 0.68 | 0.0359 ± 0.064
53 | CG A16G | -0.395 ± 0.6 | -0.205 ± 0.27
54 | TA T76A T78G C87A T104G T113A | -0.127 ± 0.0086 | -0.3 ± 0.22
55 | CG T120G | -0.103 ± 0.1 | -0.231 ± 0.1
56 | TA T76A T78A T84A C87A A102T T111C T113C | -0.0132 ± 0.72 | 0.244 ± 0.16
57 | CG T6C | -1.5 ± 1 | -2.65 ± 0.37
58 | CG T6A | < -10 | -6.68 ± 0.076
